From paper PMC12319226 (Frontiers in Bioinformatics, 2025) come the findings set out here.

Usually Kd stands for the constant that tells how readily two partners part at equilibrium. A lower Kd goes with a tighter complex. One may read the koff as a measure of how fast the partners let go of each other. Low values mean a long-lived complex, high ones a short-lived complex. By kon is commonly meant the second-order rate constant of association. Read a low kon as slow association.

Where a chain is given by its changes, count along the chain named. Where “and” joins values, the source holds several entries; their conditions need not be identical. Equal entries are not always repeated.

The labels stand for the following.
T1: fHbp m001927 (Neisseria meningitidis; fHbp …, chimera)
T1 chain: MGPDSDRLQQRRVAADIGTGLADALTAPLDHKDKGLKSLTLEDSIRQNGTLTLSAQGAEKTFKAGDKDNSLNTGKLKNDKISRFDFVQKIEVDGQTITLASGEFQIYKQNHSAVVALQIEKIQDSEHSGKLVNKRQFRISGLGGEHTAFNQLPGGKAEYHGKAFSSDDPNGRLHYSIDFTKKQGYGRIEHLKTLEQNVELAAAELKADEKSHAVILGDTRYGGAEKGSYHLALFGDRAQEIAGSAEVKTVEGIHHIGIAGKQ

T2: fHbp m001691 (Neisseria meningitidis; fHbp …, point mutant)
T2 chain: T1 chain with Y221L, G222N, E251V

T3: fHbp m001928 (Neisseria meningitidis; fHbp …, chimera)
T3 chain: T1 chain with G252S

T4: fHbp m002416 (Neisseria meningitidis, designed fHbp …, chimera)
T4 construct: also called fHbp 2,416; Round 2 best mutant
T4 chain: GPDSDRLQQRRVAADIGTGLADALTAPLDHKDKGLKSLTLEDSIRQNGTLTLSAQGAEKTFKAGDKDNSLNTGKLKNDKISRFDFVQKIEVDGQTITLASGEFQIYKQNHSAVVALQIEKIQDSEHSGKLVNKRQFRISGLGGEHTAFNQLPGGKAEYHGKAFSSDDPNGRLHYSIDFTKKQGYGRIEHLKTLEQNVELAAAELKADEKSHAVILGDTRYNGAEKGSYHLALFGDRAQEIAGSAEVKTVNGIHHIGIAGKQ

T5: fHbp m002392 (Neisseria meningitidis; fHbp …, chimera)
T5 chain: T1 chain with G222N, T249S, E251V

T6: fHbp m001935 (Neisseria meningitidis; fHbp …, chimera)
T6 chain: T1 chain with E251V, G252A

T7: fHbp m002335 (Neisseria meningitidis; fHbp …, chimera)
T7 chain: T1 chain with G222N, G223S, E251N

T8: fHbp m002415 (Neisseria meningitidis, designed fHbp …, chimera)
T8 chain: T4 chain with N250E, G251A

T9: fHbp m002413 (Neisseria meningitidis, designed fHbp …, chimera)
T9 chain: T4 chain with N250E

B1: mAb 4B3 (human) (antibody, V domains shown)
VH: QVQLVQSGGGLVKPGGSLRLSCAASGFPFSSYYMSWIRQAPGKGLEWVSDINNSGNVKEYADFVKGRLTISRDNVKNSMYLHMNSLRVEDTAVYYCARNRGRFDVWGQGTLVTVSA
VL: EIVMTQSPGTLSLSPGETATLSCRASQMISSPFLAWYQQRRGQAPRLLIYGASTRATDTPDRFRGSGSGTDFILTISRLEPEDFAVYYCQYYDDSPFTFGQGTKLEIK
notes: also called 4B3-2; source: Expi293, purified (MabSelect SuRe, SEC); copies: 2 + 2
B2: mAb 1E6 (human) (antibody, V domains shown)
VH: EVQLVQSGAEVKKPGSSVKVSCKASGGTVIDYPITWVRQAPGQGLEWVGGFVPLFRTSNYGQKFQGRVTITADKSTSTASMELNSLTSEDTAIYYCARGDTAMGPFDYWGQGTLVTVSS
VL: SYVLTQPPSLSVAPGKTATLTCGGNNIAGKTVHWYQQRPGQAPVLVISYDSDRPSGIPERFSGSNSANTATLTISRVEAGDEADYYCQVWDRNSDHWVFGGGTKLTVL
notes: source: Expi293, purified (MabSelect SuRe, SEC); copies: 2 + 2
B3: chimeric antibody hJAR5 (antibody, V domains shown)
VH: QVQMQQPGAELVKPGASVKLSCKASGYTFISYWMHWVKQRPGRGLEWIGRIAPDTGIIYYNEKFKNKATLTVDTPSSTAYMQLNSLTSEDSAVYYCARYLKYDGSTYRFDYWGQGTTLTVSS
VL: DIVMTQAAPSVPVTPGESVSISCRSSKSLLHSNGNTYLFWFLQRPGQSPQLLIYRMSNLASGVPDRFSGSGSGTSFTLRISRVEAEDVGVYYCMQHLEYPYTFGGGTKLEIK
notes: also called hJAR5-2; humanized JAR5; source: Expi293, purified (MabSelect SuRe, SEC); copies: 2 + 2
B4: chimeric antibody h12C1 (antibody, V domains shown)
VH: QVQLQESGPELVKPGASVKISCKASGYSFSDYNMSWVKQSNGKSLEWIGIIDPKYGTINYNQKFKGKATLTVDQASSTAYMQLNSLTSEDSAVYYCVRDYYGSSYFDYWGQGTTLTVSS
VL: DIVLTQSPSSIYASLGERVTLTCKASQDIHNYLNWFQQKPGKSPKTLIYRANRLVDGVPSRFSGGGSGQDYSLTISSLEFEDIGIYYCLQYDEFPPTFGGGTRLEIK
notes: also called humanized 12C1; source: Expi293, purified (MabSelect SuRe, SEC); copies: 2 + 2

The first test deals with T1, fHbp m001927. The test is described as follows: BLI. The note with it: both partners purified.
Consider B1, for which the Kd worked out at 3.64 nM, the off-rate constant (koff) worked out at 0.000943 s⁻¹ and the on-rate (kon) came out at 259300 ± 1550 M⁻¹ s⁻¹.

B2: the Kd is 0.293 nM, the off-rate (koff) is 0.000118 s⁻¹ and the kon was found to be 402600 ± 1680 M⁻¹ s⁻¹.

B3: the dissociation constant Kd was found to be 0.824 nM.

Take B4: the dissociation constant (Kd) amounted to 0.38 nM, the koff turned out to be 7.94e-05 s⁻¹ and the on-rate constant (kon) stood at 209200 ± 1710 M⁻¹ s⁻¹.

For a further test, the target named is T2, fHbp m001691. Description: BLI. The note with it: both partners purified.
The molecule B1 yielded a Kd of 3.1 nM, an off-rate constant (koff) of 0.000731 s⁻¹ and a kon of 235300 ± 1280 M⁻¹ s⁻¹.

B2: the Kd amounted to 1.01 nM, the koff is 0.000364 s⁻¹ and the kon worked out at 361600 ± 1550 M⁻¹ s⁻¹.

On to B3, for which the dissociation constant (Kd) was 0.838 nM.

B4 showed a Kd of 34 nM, a dissociation rate constant (koff) of 0.00857 s⁻¹ and a kon of 252000 ± 2680 M⁻¹ s⁻¹.

Another test deals with T3, fHbp m001928. Description: BLI. The note with it: both partners purified.
Take B1: the dissociation constant Kd came to 4.25 nM, the koff was 0.00106 s⁻¹ and the on-rate (kon) was 248300 ± 1560 M⁻¹ s⁻¹.

In turn, B2 gave a dissociation constant Kd of 0.174 nM, a koff of 0.000163 s⁻¹ and an on-rate (kon) of 937300 ± 2910 M⁻¹ s⁻¹.

B3 gave a Kd of 0.741 nM.

As for B4, binding was characterised by a dissociation constant (Kd) of 55.3 nM, the off-rate (koff) came to 0.0146 s⁻¹ and the kon worked out at 264000 ± 5240 M⁻¹ s⁻¹.

For the next test, the target named is T4, fHbp m002416. The test is described as follows: BLI. The note with it: both partners purified.
The molecule B1 displayed an off-rate constant (koff) of 0.00113 s⁻¹ and a kon of 296100 ± 925 M⁻¹ s⁻¹.

B2: the off-rate constant (koff) was 0.000104 s⁻¹ and the on-rate constant (kon) amounted to 322000 ± 2420 M⁻¹ s⁻¹.

Molecule B4 displayed a koff of 5.89e-05 s⁻¹ and an association rate constant (kon) of 201100 ± 1150 M⁻¹ s⁻¹.

The next test concerns the target T5, fHbp m002392. The test is described as follows: BLI. The following applies: both partners purified.
B1 came in with an equilibrium dissociation constant (Kd) of 2.95 nM, an off-rate (koff) of 0.00106 s⁻¹ and a kon of 359400 ± 1640 M⁻¹ s⁻¹.

B2 came in with a Kd of 0.515 nM, a koff of 0.000157 s⁻¹ and an on-rate constant (kon) of 305400 ± 1880 M⁻¹ s⁻¹.

For the molecule B3, the Kd was 0.711 nM and 0.689 nM.

In turn, B4 registered a Kd of 0.892 nM, a koff of 0.000212 s⁻¹ and an on-rate (kon) of 237100 ± 1550 M⁻¹ s⁻¹.

The target in the next test is T6, fHbp m001935. The test is described as follows: BLI. The following applies: both partners purified.
With B1, the Kd was 2.34 nM, the off-rate (koff) turned out to be 0.000973 s⁻¹ and the kon stood at 415300 ± 2100 M⁻¹ s⁻¹.

Molecule B2 displayed an equilibrium dissociation constant (Kd) of 0.131 nM, a koff of 5.4e-05 s⁻¹ and an on-rate constant (kon) of 412500 ± 2300 M⁻¹ s⁻¹.

B3 had a Kd of 0.401 nM.

For B4, the Kd was determined as 18.9 nM, the off-rate (koff) worked out at 0.00626 s⁻¹ and the kon was 330500 ± 3080 M⁻¹ s⁻¹.

A further test has as its target T7, fHbp m002335. The test is described as follows: BLI. The note with it: both partners purified.
The molecule B1 returned a Kd of 5.08 nM, a dissociation rate constant (koff) of 0.00109 s⁻¹ and a kon of 214100 ± 1500 M⁻¹ s⁻¹.

For the molecule B2, the Kd was found to be 0.137 nM, the dissociation rate constant (koff) was found to be 0.000102 s⁻¹ and the kon is 744000 ± 3230 M⁻¹ s⁻¹.

In turn, B3 displayed a dissociation constant (Kd) of 0.883 nM.

In turn, B4 had a Kd of 0.235 nM, a koff of 8.01e-05 s⁻¹ and an association rate constant (kon) of 340700 ± 1750 M⁻¹ s⁻¹.

A further test deals with T8, fHbp m002415. Description: BLI. The following applies: both partners purified.
B1 registered a Kd of 3.78 nM, a koff of 0.00101 s⁻¹ and a kon of 267700 ± 1540 M⁻¹ s⁻¹.

Molecule B2 registered a Kd of 0.831 nM, a dissociation rate constant (koff) of 0.000302 s⁻¹ and a kon of 363300 ± 1200 M⁻¹ s⁻¹.

B3 yielded a Kd of 0.664 nM.

The molecule B4 had a dissociation constant Kd of 66.7 nM, a koff of 0.00939 s⁻¹ and a kon of 141000 ± 2240 M⁻¹ s⁻¹.

For a further test, the target named is T9, fHbp m002413. Description: BLI. The following applies: both partners purified.
As for B1, the Kd was 4.57 nM and 3.74 nM; the koff is 0.00112 s⁻¹ and 0.00115 s⁻¹; the kon was 245000 M⁻¹ s⁻¹ and 307000 M⁻¹ s⁻¹.

B2 had a dissociation constant (Kd) of 0.66 nM, a koff of 0.000271 s⁻¹ and an association rate constant (kon) of 410700 ± 2050 M⁻¹ s⁻¹.

Consider B3, for which binding was put at a Kd of 1.09 nM. This counts as single-digit nanomolar.

Molecule B4 yielded a dissociation constant Kd of 1.1 nM, a koff of 0.000237 s⁻¹ and a kon of 214700 ± 1140 M⁻¹ s⁻¹.
